The values below come from US20190062727A1 (University of Texas, published 2019).

This assay has as its target T1, Rlip (RALBP1, RLIP76), endogenous protein of mouse embryonic fibroblasts and mouse liver (mouse, UniProt Q62172 2-648).
T1 construct: Endogenous protein, detected with a rabbit monoclonal anti-Rlip antibody from Abcam
T1 sequence (looked up): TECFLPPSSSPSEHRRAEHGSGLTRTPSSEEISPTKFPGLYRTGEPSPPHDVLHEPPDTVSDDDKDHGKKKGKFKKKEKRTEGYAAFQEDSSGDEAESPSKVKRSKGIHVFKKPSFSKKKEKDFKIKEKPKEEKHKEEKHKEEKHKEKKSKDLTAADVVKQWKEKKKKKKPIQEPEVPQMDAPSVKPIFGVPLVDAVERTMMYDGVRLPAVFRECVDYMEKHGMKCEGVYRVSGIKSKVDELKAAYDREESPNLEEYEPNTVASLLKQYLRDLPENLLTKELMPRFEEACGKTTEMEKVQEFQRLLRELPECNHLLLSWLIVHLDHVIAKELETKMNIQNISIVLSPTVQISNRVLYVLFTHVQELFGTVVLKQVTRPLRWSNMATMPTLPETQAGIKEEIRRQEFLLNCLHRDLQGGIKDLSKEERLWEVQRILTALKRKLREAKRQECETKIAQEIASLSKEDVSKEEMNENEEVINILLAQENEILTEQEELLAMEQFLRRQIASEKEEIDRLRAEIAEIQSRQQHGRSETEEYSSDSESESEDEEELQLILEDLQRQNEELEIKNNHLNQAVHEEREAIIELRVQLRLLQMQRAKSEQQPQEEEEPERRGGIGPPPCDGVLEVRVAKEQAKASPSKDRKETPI
Kind of assay: co-immunoprecipitation from whole-cell homogenates of wt, p53+/- and p53-/- MEFs. From the text: Binding interactions of HSF1, Rlip and p53 in wt, p53^{-/-} MEFs without or with Rlip depletion using R508 were studied by co-immunoprecipitation using protein A/G PLUS-Agarose immunoprecipitation reagent sc-2003 from Santa Cruz Biotechnology (Columbus, Ohio) according to the manufacture's protocol using whole-cell homogenates of wild-type, p53^{-/-} or p53^{+/-} MEFs. Primary anti-HSF1 rabbit monoclonal antibody (D3L8I) and anti-p53 mouse monoclonal antibody was from Cell Signaling Technology (Danvers, Mass.), and rabbit monoclonal anti-Rlip antibody was from Abcam (Cambridge, Mass.). The specificity of primary antibodies was tested using MEFs from either p53^{-/-} or Rlip^{-/-} MEFs. The corresponding probes of anti-rabbit PLUS and anti-mouse MINUS were provided in the kit and used per the manufacturer's instructions. wt, p53^{-/-} and […]. […] Slides were visualized by fluorescence microscopy using an Olympus BX50 microscope, and photomicrographs were taken using a 40× objective.
The 4-hydroxynonenal (4HNE) and8-OH-deoxyguanosine (8OHdG) levels were measured in liver homogenate using Oxiselect kits from Cell Biolabs, San Diego, Calif. by procedures described in Methods and the results are shown in FIG. 2A and FIG. 2B, respectively. […]

B1: p53 (TP53), endogenous protein of mouse embryonic fibroblasts and mouse liver (other, UniProt P02340 1-390, looked up)
chain: MTAMEESQSDISLELPLSQETFSGLWKLLPPEDILPSPHCMDDLLLPQDVEEFFEGPSEALRVSGAPAAQDPVTETPGPVAPAPATPWPLSSFVPSQKTYQGNYGFHLGFLQSGTAKSVMCTYSPPLNKLFCQLAKTCPVQLWVSATPPAGSRVRAMAIYKKSQHMTEVVRRCPHHERCSDGDGLAPPQHLIRVEGNLYPEYLEDRQTFRHSVVVPYEPPEAGSEYTTIHYKYMCNSSCMGGMNRRPILTIITLEDSSGNLLGRDSFEVRVCACPGRDRRTEEENFRKKEVLCPELPPGSAKRALPTCTSASPPQKKKPLDGEYFTLKIRGRKRFEMFRELNEALELKDAHATEESGDSRAHSSYLKTKKGQSTSRHKKTMVKKVGPDSD
notes: Endogenous protein, detected with a mouse monoclonal anti-p53 antibody from Cell Signaling Technology
Turning to B1, the binding result was “binds”.
